Numbering of substitutions follows the chain as printed.
Legend:
[1] = biological target: T1, cell surface MUC1-C protein (human, UniProt P15941 1098-1255); experiment: flow cytometry, ZR-75-1, MCF-7 and HCT-116/MUC1 cells
T1 construct: MUC1-C subunit as carried by MUC1-positive cell lines and patient cells (or in their lysates for Western blot); also called MUC1 C-ter; MUC1 on MUC1-positive cells
T1 sequence: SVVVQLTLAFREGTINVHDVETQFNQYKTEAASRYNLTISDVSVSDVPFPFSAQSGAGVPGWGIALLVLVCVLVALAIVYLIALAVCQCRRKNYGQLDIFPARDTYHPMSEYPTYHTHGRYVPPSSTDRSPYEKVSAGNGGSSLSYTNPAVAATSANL
Text: FIG. 35. […] Reactivity was detected by immunofluorescence FACScan.
FIG. 36. […] Reactivity was detected by immunofluorescence FACScan.

MUC1-C/ECD protein [2] = biological target: T2, MUC1-C/ECD protein (human, UniProt P15941 1098-1155); experiment: ELISA, plates coated with the antigen, multiple antibody concentrations
T2 construct: also called MUC1-C/ECD antigen; the antigen
T2 sequence: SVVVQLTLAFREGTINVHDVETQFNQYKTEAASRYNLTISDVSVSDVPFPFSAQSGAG
Experimental: FIG. 38. ELISA assays were performed by coating plates with the antigen and reactivity with multiple different concentrations of purified antibodies 7B8, 4G5 and 2B11.

P1 [3] = biological target: T3, P1 (human); experiment: ELISA, peptide as competitor (indirect: peptide did not inhibit binding to the antigen)
T3 construct: Synthetic overlapping peptide of MUC1-C/ECD; also called peptide P1
T3 peptide: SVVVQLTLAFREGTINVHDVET

P2 [4] = biological target: T4, P2 (human); experiment: as above
T4 construct: Synthetic overlapping peptide of MUC1-C/ECD; also called peptide P2
T4 peptide: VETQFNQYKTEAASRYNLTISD

P3 [5] = biological target: T5, P3 (human); experiment: as above
T5 construct: Synthetic overlapping peptide of MUC1-C/ECD; also called peptide P3
T5 peptide: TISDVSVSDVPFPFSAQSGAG

[6] = biological target: T6, bacterially-produced MUC1-C/ECD protein (human, UniProt P15941 1098-1155); experiment: Western blot
T6 construct: Produced in bacteria; also called MUC1 proteins made in bacteria; p58-mFc
T6 sequence: T2 sequence

MUC1-C/ECD-hFc = biological target: T7, MUC1-C/ECD-hFc (human, UniProt P15941 1098-1155); experiment: hybridoma screen, indirect ELISA or Western blot; antigen MUC1-C/ECD-mFc or MUC1-C/ECD-hFc
T7 construct: The screening text says the antigen was MUC1-C/ECD-mFc or MUC1-C/ECD-hFc; the hFc form is used here because hFc alone was the negative control; also called hFc-MUC1-C/ECD; MUC1-ECD-hFc; not shown: human Fc (hFc)
T7 sequence: T2 sequence
Experimental: ELISA. ELISA was performed by coating the plates with 100 μl of 1 μg/ml MUC1-C/ECD-hFc or MUC1-C/ECD-mFc or hFc (as negative control). Hybridoma supernatants or immune sera were screened against the coated proteins by incubating with the plate for 1 hr. The bound antibody was detected by incubating with specific secondary antibody (anti-mouse Ig, F(ab)₂ specific) conjugated to HRP (horse radish peroxidase). Further, the reaction was developed with HRP-specific substrate for 30 min and the plate was read at 405 nm.
Fusion for Hybridoma and Primary Screening. Based on the results obtained from the ELISA, spleen from both mice was used for fusion with myeloma cells to generate hybridoma. Spleen-myeloma fusion was performed by mixing mouse myeloma cells sp2/0-Ag14 and splenocytes in 1:3 ratio in the presence of polyethylene glycol (PEG). Post fusion cell culture was carried out in selective HAT medium. Hybridomas selected by indirect ELISA or Western blot using recombinant MUC-C/ECD-mFc or MUC1-C/ECD-hFc as the antigen and were subjected to subcloning by limiting dilution protocol until the clones become stable. The fusion clones obtained from the spleen of mouse 1 is termed as 315.1 clones and similarly the one from mouse 2 is called 315.2 clones. The fusion clones obtained from the spleen of mouse 1 from other immunization batch is termed as 384 clones. […]

P1 [7] = biological target: T3, P1; experiment: ELISA on coated MUC1-C/ECD antigen with or without peptide (indirect)
Experimental: (§1) Characterized of 7B8 and 3D1 antibodies. Linear epitope mapping of 7B8 and 3D1 clones was performed using three overlapping peptides spanning the entire MUC1-C/ECD region (58 amino acids) were synthesized. ELISA assays were performed using 7B8 or 3D1 purified antibodies in the presence or absence of P1, P2 or P3 peptides. […] Conformational epitope mapping of 7B8 and 3D1 was performed using eight critical individual point mutants in the MUC1-C/ECD region by ELISA. […] These findings indicate that D19 is a part of the conformational core/pocket for 3D1 binding. ZR-75-1 breast carcinoma cells were used determine 7B8 or 3D1 antibody binding in a competitive format with MUC1-C/ECD and analyzed by FLOW. […] These findings indicate that the conformational binding epitopes of 7B8 and 3D1 are different. The sequencing results for hybridoma 3D1 is shown in FIG. 50 and is discussed in greater detail below.

P2 [8] = biological target: T4, P2; experiment: as above
Experimental: as §1

P3 [9] = biological target: T5, P3; experiment: as above
Experimental: as §1

MUC1-C/ECD protein [10] = biological target: T2, MUC1-C/ECD protein; experiment: ELISA, plates coated with the MUC1-C/ECD antigen; soluble MUC1-C/ECD protein also abrogated 3D1 binding to cells
[11] = biological target: T1, cell surface MUC1-C protein; experiment: cell-based or functional assay
MUC1-C/ECD protein [12] = biological target: T2, MUC1-C/ECD protein; experiment: ELISA, plates coated with the MUC1-C/ECD antigen
MUC1-CQC→AQA mutant = biological target: T8, MUC1-CQC→AQA mutant (human, UniProt P15941 1098-1255); experiment: flow cytometry, HCT116/MUC1-CQC→AQA mutant cells
T8 construct: also called HCT116/MUC1-CQC→AQA mutant cells
T8 chain: T1 sequence with C87A, C89A
Experimental: FIG. 37. HCT116/MUC1-wild-type and HCT116/MUC1-CQC→AQA mutant cells 7B8 for 30 min, washed, incubated with goat anti-mouse immunoglobulin-flourescein-conjugated antibody (Santa Cruz Biotechnology), and fixed in 1% formaldehyde/PBS. Reactivity was detected by immunofluorescence FACScan.

[13] = biological target: T1, cell surface MUC1-C protein; experiment: flow cytometry, ZR-75-1 cells, competitive format with purified MUC1-C/ECD protein; 7B8 binding not abrogated
Experimental: as §1

[14] = biological target: T1, cell surface MUC1-C protein; experiment: surface staining, flow cytometry, K562 CML cells; 2 µg antibody/sample
[15] = biological target: T1, cell surface MUC1-C protein; experiment: surface staining, flow cytometry, KU812 CML cells; 2 µg antibody/sample
[16] = biological target: T1, cell surface MUC1-C protein; experiment: surface staining, flow cytometry, ZR-75-1 cells (third row); 2 µg antibody/sample
[17] = biological target: T1, cell surface MUC1-C protein; experiment: surface staining, flow cytometry, K562 MUC1-siRNA cells (MUC1 silenced); 2 µg antibody/sample
[18] = biological target: T1, cell surface MUC1-C protein; experiment: surface staining, flow cytometry, K562 CTL-siRNA cells; 2 µg antibody/sample; fixed samples kept at 4° C. for 4 days

B1: 400.6.2B11.D5.F6 (antibody, IgG1, V domains shown)
VH: QVQLQQSGAELMKPGASVKISCKAIGFTFNYFWIEWVKQRPGHGLEWIGEILPGTGSTNYNEKFKGKAIFTADTSSNTAYMQLRSLTSEDSAVYYCVRYDYTSSMDYWGQGTSVTVSS
VL: NIVMTQSPKSMSMSVGERVTLTCKASENVGTYVSWYQQKPEQSPKLLIYGASNRYTGVPNRFTGSGSATDFTLTISSVQAEDLADYYCGQSYSYPWTFGGGTKLEIK
Q: What does the source list for B1?
A: binding result [1]: binds; binding result (MUC1-C/ECD protein [2]): binds; binding result (P1 [3]): no binding; binding result (P2 [4]): no binding; binding result (P3 [5]): no binding

B2: 384.1.2H11.F2.G6 (antibody, V domains shown)
VH: QIQLVQSGPELKKPGETVKTSCKASGYTFTGYSMHWVKQAPGKGLKWMGWINTETGEPTYADDFKGRFALSLETSASTTYLQINNLKNEDTATYFCVRGTGGDDWGQGTTLTVSS
VL: DVVMTQTPLSLPVSLGDQASISCRSSQSLVHSNGNTYLHWYLQKPGQSPKLLIYKVSNRFSGVPDRFSGSGSGTDFTLKINRVEAEDLGVYFCSQGTHVPPTFGGGTKLEIKR
notes: The printed entries run a few residues into the constant regions; also called 384.2H11.F2.G6
Q: Which results are given for B2?
A: binding result [6]: binds; binding result (MUC1-C/ECD-hFc): binds

B3: 441.3.3D1.D6.D11.B1.F10 (antibody, V domains shown)
VH: QVQLQQSGAELVRPGSSVKISCKTSGYAFSNFWMNWVKQRPGQGLEWIGQIYPGDGDTNYNGKFKGKATLTADKSSSTAYMQLSSLTSEASAVYFCARSYYRSAWFAYWGQGTLVSVSA
VL: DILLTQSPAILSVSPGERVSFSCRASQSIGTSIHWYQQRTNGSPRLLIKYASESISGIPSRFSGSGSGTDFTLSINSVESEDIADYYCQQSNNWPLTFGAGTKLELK
notes: Mouse hybridoma antibody; also called Anti-Muc-1; 536064-1
Q: Does B3 bind (P1 [7])?
A: no binding

Q: Does B3 bind (P2 [8])?
A: no binding

Q: Does B3 bind (P3 [9])?
A: no binding

Q: Does B3 bind (MUC1-C/ECD protein [10])?
A: binds

B4: 7B8-MMAF (other)
VH: QVQLQQPGAELVKPGASEKLSCKASGHTFTSYWMHWVKQRPGQGLEWIGEINPSNGRTYYNENFKTKATLTVDKYSSSASMQLRSLTSEDSAVYYCASDGDYVSGFAYWGQGTTLTVSS
VL: DIVLTQSPGSLAVSLGQSVTISCRASESVQYSGTSLMHWYQQKPGQPPKLLIYGASNVETGVPARFSGSGSGTDFSLNIHPVEEDDIAMYFCQQNWKVPWTFGGGTKLEIK
modifications: monomethyl auristatin F (MMAF) via cleavable linker valine-citrulline-p-aminobenzyl (Val-Cit-PAB); attachment residues not stated
Q: Which “dose-dependent inhibition of proliferation in ZR-75-1 breast carcinoma cells, IC50” value [11] does the source give for B4 here?
A: ~0.86 nM

B5: 400.6.7B8.G3.G1 (antibody, IgG2a, V domains shown)
VH: B4 VH
VL: B4 VL
Q: Does B5 bind (MUC1-C/ECD protein [12])?
A: binds

Q: Does B5 bind (MUC1-CQC→AQA mutant)?
A: binds

Q: Does B5 bind (P1 [3])?
A: no binding

Q: Does B5 bind (P2 [4])?
A: no binding

Q: Does B5 bind (P3 [5])?
A: no binding

Q: Does B5 bind [13]?
A: binds

B6: 400.6.4G5.E11.G2 (antibody, IgG1, V domains shown)
VH: QITLKESGPGILQPSQTLSLTCSFSGFSLSTSGMGVSWIRQPSGKGLEWLSHIYWDDDKRYNPSLKSRLSISKDTSRNQVFLKITSVDTADTATYYCAPGVSSWFPYWGPGTLVTVSA
VL: SIVMTQTPKFLPVSAGDRVTVTCKASQSVGNYVAWYQQKPGQSPKLLIYFASNRYSGVPDRFTGSGSGTDFTFTISSVQVEDLAVYFCQQHYIFPYTFGSGTKLEIK
Q: Does B6 bind [1]?
A: binds

Q: Does B6 bind (MUC1-C/ECD protein [2])?
A: binds

Q: Does B6 bind (P1 [3])?
A: no binding

Q: Does B6 bind (P2 [4])?
A: no binding

Q: Does B6 bind (P3 [5])?
A: no binding

B7: 315.1.6A6.C11.G5 (antibody, V domains shown)
VH: QVQLKESGPGLVAPSQSLSMTCTVSGFSLTTYGVHWVRQPPGKGLEWLVVIWSDGSTTYNSPLKSRLSISRDNSKSQVFLKMNSLQADDTAIYYCAKNYLGSLDYWGQGTSVTVSS
VL: DVVLTQTPLSLPVSLGDQASISCRSSQSLVHNNGDTYLHWYLQKPGQSPKLLIYKVSNRFSGVPDRFSGSGSGTDFTFKISRVEAEDLGVYFCSQTTHVPLTFGAGTKLELK
notes: also called MAb 6A6; Clone 6A6
Q: For B7, which “flow cytometry value (unit not given)” value [14] is on record?
A: 9.31

Q: And the “flow cytometry value (unit not given)” value [15]?
A: 31.6

Q: And the “flow cytometry value (unit not given)” value [16]?
A: 2.16

Q: What about the “flow cytometry value (unit not given)” value [17] of the same binder?
A: 6.26

Q: What about the “flow cytometry value (unit not given)” value [18] of the same binder?
A: 22.6

B8: 315.2.8E1.F7.C3.H7.H8.F5 (antibody, V domains shown)
VH: EVQLVESGGGLVQPGESLKLSCESNEYEFPSHDMSWVRKTPEKRLELVAAINSDGGSTYYPDTMERRFIISRDNTKKTLYLQMSSLRSEDTALYYCVRLYYGNVMDYWGQGTSVTVSS
VL: B7 VL with L4M, N32S, D35N, H39Y, F78L, T96S
notes: also called MAb 8E1; Clone 8E1
Q: Which results are given for B8?
A: flow cytometry value (unit not given) [14]: 8.65; flow cytometry value (unit not given) [15]: 39.6; flow cytometry value (unit not given) [16]: 1.61; flow cytometry value (unit not given) [17]: 6.91; flow cytometry value (unit not given) [18]: 22.4

B9: 315.2.8F1.D2.D1 (antibody, V domains shown)
VH: B8 VH
VL: B7 VL with L4M, N32S, D35N, H39Y, F78L, T96S
notes: also called Clone 8F1; P58-8F1
Q: With B9 as the binder, how does the “flow cytometry value (unit not given)” value [14] read?
A: 9.58

Q: What about the “flow cytometry value (unit not given)” value [15] of the same binder?
A: 39.9

Q: And the “flow cytometry value (unit not given)” value [16]?
A: 1.57

Q: And the “flow cytometry value (unit not given)” value [17]?
A: 6.37

Q: What about the “flow cytometry value (unit not given)” value [18] of the same binder?
A: 34.4

From patent US20160340442A1 (Dana-Farber, published 2016)
